Experimental data: patent publication US20130287684A1 (SYMPHOGEN A S, published 2013)

How the values were obtained:
human HER3 receptor = biological target: T1, human HER3 receptor (human, UniProt P21860 20-643); assay: method not named there (Example 1: HER3 ELISA and confocal microscopy on MCF-7 cells)
T1 construct: also called ErbB3
Description: Briefly, Nunc Maxisorb plates (cat.#464718) were coated with 1 μg/ml HER3 protein (R&D Systems cat.#348-RB), diluted in PBS at 4° C. overnight. Prior to blocking in 50 μl 2% milk-PBS+0.05% Tween 20 the plates were washed once with PBS-T. The plates were washed once with PBS-T and 20 μl of 2% milk-PBS-T, and 10 μl supernatants from FreeStyle293 transfectants were added and incubated for 1 hour at room temperature, after which the plates were washed once with PBS-T, 20 μl per well. Secondary antibody (HRP-Goat-anti-human kappa light chain, Serotec, cat.# STAR 100P) diluted 1:25000 in 2% milk-PBS-T was added to detect the antibodies bound to the wells and incubated for 1 hour at room temperature. The plates were washed once in PBS-T before addition of 25 μl substrate (Kem-En-Tec Diagnostics, cat.#4518) that was incubated for 5 min. 25 μl 1M sulphuric acid was added after the incubation to stop the reaction. Specific signal was detected on an ELISA reader at 450 nm. From the ELISA data 480 positive antibody clones were identified and selected for sequence analysis and validation of binding to HER3.
The 119 clones were screened for binding to the HER3-overexpressing breast cancer cell line (MCF-7) using confocal microscopy. 10,000 MCF-7 cells were seeded into each well of 384-well cell carrier plates (Perkin Elmer, cat.#6007439) and allowed to attach overnight. The media was again discarded and the cells were washed and fixed with 2% formaldehyde solution (Aldrich cat.#533998). After washing, 40 μl of antibody supernatant was transferred to each well and plates were incubated for 2 hours, after which the media in the wells was discarded and 30 μl new media containing 2 μg/ml of Alexa-488 labelled goat anti-human IgG (H+L, Invitrogen cat.# A11013), 2 μg/ml CellMask Blue (Invitrogen cat.# H34558) and 1 μM Hoechst 33342 (Invitrogen cat.# H3570) was added to each well and plates were incubated for another 30 minutes. The level of fluorescence was then measured using an OPERA high throughput confocal microscope (Perkin Elmer).

[1] = biological target: T2, fully human HER3 ECD construct with N-terminal histidine tag (human, UniProt P21860 20-643); assay: ELISA on coated His-tagged HER3 ECD constructs
T2 construct: extracellular domain; Transiently expressed in Hek 293 cells, purified on nickel NTA; also called fully human ECD construct
T2 sequence (P21860 20-643): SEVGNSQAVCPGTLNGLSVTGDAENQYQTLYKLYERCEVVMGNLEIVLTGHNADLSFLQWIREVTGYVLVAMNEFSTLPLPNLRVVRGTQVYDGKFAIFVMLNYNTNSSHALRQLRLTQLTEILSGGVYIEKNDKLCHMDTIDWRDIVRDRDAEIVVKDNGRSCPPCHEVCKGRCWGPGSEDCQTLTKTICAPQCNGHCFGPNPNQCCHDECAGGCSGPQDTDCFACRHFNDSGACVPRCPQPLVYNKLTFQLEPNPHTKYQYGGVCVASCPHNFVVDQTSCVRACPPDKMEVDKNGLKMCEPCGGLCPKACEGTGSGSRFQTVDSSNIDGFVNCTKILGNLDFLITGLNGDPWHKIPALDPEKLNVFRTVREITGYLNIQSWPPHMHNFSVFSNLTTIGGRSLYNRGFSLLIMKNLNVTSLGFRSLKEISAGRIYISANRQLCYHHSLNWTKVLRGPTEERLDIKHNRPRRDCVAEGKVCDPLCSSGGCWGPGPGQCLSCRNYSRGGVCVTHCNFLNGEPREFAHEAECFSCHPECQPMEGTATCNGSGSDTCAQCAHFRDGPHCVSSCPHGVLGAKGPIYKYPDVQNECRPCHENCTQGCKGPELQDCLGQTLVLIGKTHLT
Source text: Because the anti-HER3 antibody panel was raised in mice, antibodies are not expected to recognize epitopes present on murine HER3 due to the concept of “self tolerance”. Consequently, chimeric receptor constructs in which the human sequences coding for individual domains are replaced by murine sequences can be employed for epitope mapping purposes, since the antibodies are not expected to bind the murines sequence inserted in the human HER3 construct. Human and murine HER3 mRNA sequences (accession number M29366 and NM_{—}010153.1 respectively) were downloaded from NCBI, and extracellular domains I-IV were assigned as described by Kani et al. (J. Biol. Chem. (2005) 280:8238-8247). Chimeric human/murine domain exchange variants, in which each of the four human extracellular HER3 domains were replaced by the respective murine DNA sequence, were provided with an N-terminal histidine tag, gene synthesized and transiently expressed in Hek 293 cells. A fully human and a murine ECD construct were used as positive and negative controls, respectively. […] The next day wells were blocked with 1% BSA/PBS-T and titrations of antibodies diluted in blocking buffer were added. […]
The domain mapping of anti-HER3 antibodies is shown in FIGS. 27-32, which is a titration of anti-HER3 antibodies and negative controls against coated HER3 antigens. Bound antibody was detected with an anti-human Fc antibody. […]

T1 sequence (P21860 20-643 limits assumed): as the sequence (P21860 20-643) above

Row | Binder | binding result (human HER3 receptor) | binding result [1]
1 | antibody 5259 (antibody, human IgG1, kappa, V domains shown, Chimeric: murine variable regions, human kappa constant region, expressed as full-length IgG) VH: EVQLVESGPGLVAPSQSLSITCTVSGFSLSRYTIHWVRQPPGKGLEWLGMIWGGGSTDYNSALKSRLSISKDNSKSQLFLKMNSLQTDDTAIYYCARKGITTTGFDYWGQGTTLTVSS VL: NIVLTQSPAIMSASPGEKVTMTCSASSSVSYMFWYQQKPGSSPRLLIYDTSNLASGVPVRFSGSGSGTSYSLTISRMEAEDAATYYCQQLNSYPPTFGGGTKLEIKR | binds | –
2 | antibody 5144 (antibody, human IgG1, kappa, V domains shown, Chimeric: murine variable regions, human kappa constant region, expressed as full-length IgG) VH: QVQLKESGPGLVAPSQSLSITCTVSGFSLSRYSVHWVRQPPGKGLEWLGMIWGGGSTDYNSALKSRLNINKDNSKSQVFFKMNSLQTDDTAMYYCVRKGITTTGFDYWGQGTTLTVSS VL: HIVLTQSPAIMSASPGEKVTMTCSASSSVSYMYWYQQKPRSSPRLLIYDTSNLASGVPVRFSGSGSGTSYSLTISRMEADDAATYYCQQLSSYPPTFGGGTKLELKR | binds | –
3 | antibody 5106 (antibody, human IgG1, kappa, V domains shown, Chimeric: murine variable regions, human kappa constant region, expressed as full-length IgG) VH: EVKLVESGGDLVKPGESLKLSCAASGFTFSSFAMSWVRQTPEKRLEWVATISDGGSHLYYPDNVKGRFTISRDNAKNNLYLQMSHLKSEDTAMYYCARGILDYWGQGTSVTVSS VL: DIVMTQATSSLSASLGDRVTISCSASQDINNYLNWYQQKPDGTIKLLIYYTSSLHSGVPSRFSGSGSGTDYSLTISNLEPEDIATYYCQQYSRIPYTFGGGTKLEIKR | binds | binds
4 | antibody 5101 (antibody, human IgG1, kappa, V domains shown, Chimeric: murine variable regions, human kappa constant region, expressed as full-length IgG) VH: EVKLVESGGGLVKPGGSLKLSCAASGFTFSSYGMSWVRQTPEKRLEWVATIRDGGGYTYYSDNVKGRFTISRDNAQNNLYLQMSHLKSEDTAMYYCARGILDYWGQGTSVTVSS VL: QIVLTQSPSSLSASLGDRVTISCRASQDISNYLNWFQQRPDGTVKLLIYYTSRLHSGVPSRFSGSGSGTDYSLTISNLEQEDIATYFCQQGNTLPYTFGGGTKLELKR | binds | binds
5 | antibody 4785 (antibody, human IgG1, kappa, V domains shown, Chimeric: murine variable regions, human kappa constant region, expressed as full-length IgG) VH: EVQLQQSGPELVMPGASVKISCKASGYSFTSYYVHWVKQRPGQGLEWIGWIYPGSGHTKYNEKFKDKATLTADTSSSTAYMQLSSLTSEDSAVYYCARPPYYSNYADVWGTGTTVTVSS VL: DIVMTQSPSSLTVTAGEKVTMSCKSSQSLLNSGNQKNYLTWYQQKPGQPPKLLIYWASTRESGVPDRFTGSGSGTDFTLTISSVQAEDLAVYYCQSDYSYPYTFGGGTKLEIKR | binds | –

Second part, the binder after the results:

Row | binding result (human HER3 receptor) | binding result [1] | Binder
6 | binds | – | antibody 4935 (antibody, human IgG1, kappa, V domains shown, Chimeric: murine variable regions, human kappa constant region, expressed as full-length IgG) VH: QIQLVQSGPELVKPGASVRISCKASGYTFTSYYIHWVKQRPGQGLEWIGWIYPGNVHTKYTEKFKGKATLTADKSSSTAYMHLSSLTSEDSAVYFCVRRYGYDGDWFAYWGQGTLVTVSS VL: DIQMTQSPASLAVSLGQRATISCRASESVDSYGNTFMHWYQQKPGQPPKLLIYRASNLESGIPARFSGSGSRTDFTLTINPVEADDVATYYCQQSNEDPWTFGGGTKLEIKR
7 | binds | – | antibody 5038 (antibody, human IgG1, kappa, V domains shown, Chimeric: murine variable regions, human kappa constant region, expressed as full-length IgG) VH: EVKLVESGPGLVKPSQSLSLTCSVTGYSITSGFYWTWIRQFPGNKLEWMGFISYDGSNNYNPSLKNRISITRDTSKNQFFLKLNSVTTEDTATYYCARGGGYYGNLFDYWGQGTTLTVSS VL: DIVMTQTTSSLSASLGDRVTISCRPSQDISNYVNWFQQKPGGTVKLLIFHTSRLHSGVPSRFSGSGSGTDYSLTISTLEQEDIAIYFCQQGITLPWTFGGGTKLEIKR
8 | binds | – | antibody 4889 (antibody, human IgG1, kappa, V domains shown, Chimeric: murine variable regions, human kappa constant region, expressed as full-length IgG) VH: EVQLVESGPGLVKPSQSLSLTCSVTGYSITSAYYWNWIRQFPGNKLEWMGYVSYDGSNTYNPSLKNRISITRDTSKNQFFLKLISLTTEDTATYYCAREGDYGYSDYWGQGTTLTVSS VL: DIVMTQSTSSLSASLGDRVTVSCRASQDISNYLNWYQQKPDGTIKLLIYYTSRLHSGVPSRFSGSGSGTDYSLTISNLDQEDIATYFCQQSNTLPWTFGGGTKLEIKR
9 | binds | – | antibody 5082 (antibody, human IgG1, kappa, V domains shown, Chimeric: murine variable regions, human IGHG1 and kappa constant regions; also called mAb 5082) VH: EVQLKESGPGLVKPSQSLSLTCSVTGYSITSAYYWNWIRQFPGNKVEWMGYIGYDGRNTYNPSLKNRISITRDTSKNQFFLKLNSLTTEDTATYYCSREGDYGYSDYWGQGTTLTVSS VL: DIVMTQATSSLSASLGDRVTVSCRASQDINNYLNWYQQKPDGTVKLLIYYTSRLQSGVPSRFSGSGSGIDYSLTISNLEQEDFVTYFCQQSETLPWTFGGGTKLELKR
10 | binds | – | antibody 5143 (antibody, human IgG1, kappa, V domains shown, Chimeric: murine variable regions, human kappa constant region, expressed as full-length IgG) VH: QVQLQQSGPELVKPGASVKISCKASGYSFTSYYIHWVKQRPGQGLEWIGWIYPGSGHTKYNEKFKGKATLTADTSSSTAYMQLSSLTSEDSAVYYCARPPYYSNYADVWGTGTTVTVSS VL: DIVMTQSPSSLTVTAGEKVTMSCKSSQSLLNSGNQKNYMTWYQQKPGQSPKLLIYWASTRESGVPDRFTGSGSGTDFTLTISSVQAEDLAVYYCQNDYSYPYTFGGGTKLELKR
